Results taken from article PMC3734285, “Expression and Function of the Lipocalin-2 (24p3/NGAL) Receptor in Rodent and Human Intestinal Epithelia” (PLoS ONE, 2013).

What was measured:
[1] = target: human lipocalin-2/NGAL receptor (hNGAL-R) (human (endogenous in Caco-2 BBE)) (UniProt Q8WUG5); experiment: MST; as a1 but co-incubated with 500 pM hNGAL as a binding competitor to A488-PC3
[2] = target: human lipocalin-2/NGAL receptor (hNGAL-R) (human (endogenous in Caco-2 BBE)) (UniProt Q8WUG5)
[3] = target: human lipocalin-2/NGAL receptor (hNGAL-R) (human (endogenous in Caco-2 BBE)) (UniProt Q8WUG5); remark: listed apart in the source
[4] = target: human lipocalin-2/NGAL receptor (hNGAL-R) (human (endogenous in Caco-2 BBE)) (UniProt Q8WUG5); experiment: MST; fixed amounts of colon-like Caco-2 BBE plasma membrane vesicles pre-incubated 5 min at room temperature with varying A488-PC3 (10-1000 nM); 50 mM Tris pH 7.4, 150 mM NaCl, 10 mM MgCl2, 0.05% Tween-20; Hill fit with coefficient 1.0
hNGAL-R (Homo sapiens) = hNGAL-R (Homo sapiens) (UniProt Q8WUG5); conditions: cited from earlier work
Chain of hNGAL-R (Homo sapiens) (Q8WUG5 whole entry): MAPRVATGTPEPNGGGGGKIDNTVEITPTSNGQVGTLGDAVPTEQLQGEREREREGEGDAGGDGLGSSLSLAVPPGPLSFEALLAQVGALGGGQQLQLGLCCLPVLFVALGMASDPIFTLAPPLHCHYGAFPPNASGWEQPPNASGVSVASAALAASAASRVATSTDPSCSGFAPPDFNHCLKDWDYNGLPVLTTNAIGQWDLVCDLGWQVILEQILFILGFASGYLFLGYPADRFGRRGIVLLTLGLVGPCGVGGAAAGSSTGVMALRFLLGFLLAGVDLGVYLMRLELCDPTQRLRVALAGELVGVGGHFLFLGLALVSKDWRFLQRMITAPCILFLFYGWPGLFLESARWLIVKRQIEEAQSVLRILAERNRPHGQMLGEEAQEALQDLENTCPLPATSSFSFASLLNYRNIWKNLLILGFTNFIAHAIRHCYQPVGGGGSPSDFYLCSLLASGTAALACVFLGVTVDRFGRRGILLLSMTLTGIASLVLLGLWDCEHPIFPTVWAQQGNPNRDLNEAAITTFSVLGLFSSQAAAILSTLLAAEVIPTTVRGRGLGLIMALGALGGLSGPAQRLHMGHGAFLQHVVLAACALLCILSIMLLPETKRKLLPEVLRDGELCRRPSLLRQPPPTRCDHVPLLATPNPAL

Chain of human lipocalin-2/NGAL receptor (hNGAL-R) (human (endogenous in Caco-2 BBE)) (Q8WUG5 112-649): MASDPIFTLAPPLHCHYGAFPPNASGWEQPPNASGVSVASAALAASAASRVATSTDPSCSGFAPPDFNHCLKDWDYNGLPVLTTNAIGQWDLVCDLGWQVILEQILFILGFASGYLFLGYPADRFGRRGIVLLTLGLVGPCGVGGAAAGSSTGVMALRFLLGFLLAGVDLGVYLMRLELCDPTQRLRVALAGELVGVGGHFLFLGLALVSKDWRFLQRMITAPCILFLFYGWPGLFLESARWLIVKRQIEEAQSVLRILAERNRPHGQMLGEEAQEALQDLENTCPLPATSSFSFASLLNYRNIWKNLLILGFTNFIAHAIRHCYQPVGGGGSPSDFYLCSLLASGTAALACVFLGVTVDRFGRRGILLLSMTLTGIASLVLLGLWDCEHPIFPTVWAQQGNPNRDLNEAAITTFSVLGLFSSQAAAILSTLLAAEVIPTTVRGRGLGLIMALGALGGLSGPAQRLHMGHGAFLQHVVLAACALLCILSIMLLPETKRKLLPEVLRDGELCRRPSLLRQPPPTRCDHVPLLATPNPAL
Chain of hNGAL (lipocalin-2) (P80188 21-198): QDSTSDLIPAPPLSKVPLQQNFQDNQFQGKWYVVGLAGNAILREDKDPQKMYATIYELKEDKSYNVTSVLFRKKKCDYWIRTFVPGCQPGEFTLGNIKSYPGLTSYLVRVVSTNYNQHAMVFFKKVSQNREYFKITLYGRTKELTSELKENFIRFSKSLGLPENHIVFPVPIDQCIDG
Chain of Alexa Fluor 546-transferrin from human serum (P02787 20-698): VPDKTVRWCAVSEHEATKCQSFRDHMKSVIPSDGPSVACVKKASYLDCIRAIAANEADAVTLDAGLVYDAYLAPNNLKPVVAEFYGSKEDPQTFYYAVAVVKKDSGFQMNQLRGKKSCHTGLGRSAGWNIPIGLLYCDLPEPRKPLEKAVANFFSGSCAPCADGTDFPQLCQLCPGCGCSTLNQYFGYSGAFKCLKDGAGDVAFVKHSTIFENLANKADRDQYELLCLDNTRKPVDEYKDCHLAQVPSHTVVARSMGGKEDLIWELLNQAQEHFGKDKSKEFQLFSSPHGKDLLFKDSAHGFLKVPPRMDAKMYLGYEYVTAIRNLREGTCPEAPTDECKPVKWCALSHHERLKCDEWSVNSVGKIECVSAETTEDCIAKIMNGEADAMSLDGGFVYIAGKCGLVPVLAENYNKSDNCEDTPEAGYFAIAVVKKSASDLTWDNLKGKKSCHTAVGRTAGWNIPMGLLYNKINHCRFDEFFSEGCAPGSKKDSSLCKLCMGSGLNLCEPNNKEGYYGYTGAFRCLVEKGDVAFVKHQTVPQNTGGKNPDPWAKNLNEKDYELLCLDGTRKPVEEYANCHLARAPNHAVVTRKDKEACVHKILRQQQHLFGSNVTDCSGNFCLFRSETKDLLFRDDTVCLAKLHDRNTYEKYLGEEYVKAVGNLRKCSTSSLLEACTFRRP
Chain of Alexa Fluor 546-labelled metallothionein (rabbit apo-MT-2) (P18055 whole entry): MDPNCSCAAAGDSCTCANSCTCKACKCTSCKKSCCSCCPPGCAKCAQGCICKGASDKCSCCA

Substance: Alexa Fluor 488 (A488)-PC3 (phytochelatin PC3) (peptide)
- EC50 with 500 pM hNGAL [1]: 225 nM
- internalization of A488-PC3 (up to 5.6 µM, 24 h) by colon-like Caco-2 BBE cells, two-site fit, first app KD [2]: 90 nM
- inhibition by 500 pM apical hNGAL of the apical decrease of 700 nM A488-PC3 in colon-like Caco-2 BBE Transwell monolayers (AUC over 8 h) [3]: 25%
- EC50 [4]: 18.6 nM

Substance: Alexa Fluor 546-labelled metallothionein (rabbit apo-MT-2) (from UniProt P18055 1-62) (natural protein)
- inhibition by 500 pM apical hNGAL of the apical decrease of 700 nM A546-MT in colon-like Caco-2 BBE Transwell monolayers (AUC over 8 h) [3]: 40%

Substance: Alexa Fluor 546-transferrin from human serum (from UniProt P02787 20-698) (natural protein)
- inhibition by 500 pM apical hNGAL of the apical decrease of 700 nM A546-Tf in colon-like Caco-2 BBE Transwell monolayers (AUC over 8 h) [3]: 25%

Substance: hNGAL (lipocalin-2) (from UniProt P80188)
- Kd (hNGAL-R (Homo sapiens)): 0.092 nM
